Test results from PMC8130760.

Target: human IL-15Rα (captured on the surface plasmon resonance sensor chip) (human) (UniProt Q13261)
Assay: SPR

Sequence of UniProt Q13261 (Q13261 31-267): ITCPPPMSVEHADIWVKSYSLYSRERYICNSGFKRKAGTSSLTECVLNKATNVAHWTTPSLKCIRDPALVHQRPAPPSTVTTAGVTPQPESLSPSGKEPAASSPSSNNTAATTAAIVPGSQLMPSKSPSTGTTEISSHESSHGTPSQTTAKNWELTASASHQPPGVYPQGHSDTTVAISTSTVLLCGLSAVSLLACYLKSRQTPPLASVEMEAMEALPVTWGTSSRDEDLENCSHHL

Kd [nM] | koff [s⁻¹] | kon [M⁻¹ s⁻¹] | Substance
0.085 | 6.7e-05 | 780000 | NKTR-255, polyethylene glycol-conjugate of recombinant human interleukin-15 (from UniProt P40933 49-162) (ligand)
0.019 | 9.3e-05 | 5.1e+06 | recombinant human interleukin-15 (rhIL-15) (from UniProt P40933 49-162) (ligand)
